# Target: α5β1 integrin (major fibronectin receptor) on HEp-2 cells (human), P08648
# Sequence (P08648 42-1049, chain 1 of 2): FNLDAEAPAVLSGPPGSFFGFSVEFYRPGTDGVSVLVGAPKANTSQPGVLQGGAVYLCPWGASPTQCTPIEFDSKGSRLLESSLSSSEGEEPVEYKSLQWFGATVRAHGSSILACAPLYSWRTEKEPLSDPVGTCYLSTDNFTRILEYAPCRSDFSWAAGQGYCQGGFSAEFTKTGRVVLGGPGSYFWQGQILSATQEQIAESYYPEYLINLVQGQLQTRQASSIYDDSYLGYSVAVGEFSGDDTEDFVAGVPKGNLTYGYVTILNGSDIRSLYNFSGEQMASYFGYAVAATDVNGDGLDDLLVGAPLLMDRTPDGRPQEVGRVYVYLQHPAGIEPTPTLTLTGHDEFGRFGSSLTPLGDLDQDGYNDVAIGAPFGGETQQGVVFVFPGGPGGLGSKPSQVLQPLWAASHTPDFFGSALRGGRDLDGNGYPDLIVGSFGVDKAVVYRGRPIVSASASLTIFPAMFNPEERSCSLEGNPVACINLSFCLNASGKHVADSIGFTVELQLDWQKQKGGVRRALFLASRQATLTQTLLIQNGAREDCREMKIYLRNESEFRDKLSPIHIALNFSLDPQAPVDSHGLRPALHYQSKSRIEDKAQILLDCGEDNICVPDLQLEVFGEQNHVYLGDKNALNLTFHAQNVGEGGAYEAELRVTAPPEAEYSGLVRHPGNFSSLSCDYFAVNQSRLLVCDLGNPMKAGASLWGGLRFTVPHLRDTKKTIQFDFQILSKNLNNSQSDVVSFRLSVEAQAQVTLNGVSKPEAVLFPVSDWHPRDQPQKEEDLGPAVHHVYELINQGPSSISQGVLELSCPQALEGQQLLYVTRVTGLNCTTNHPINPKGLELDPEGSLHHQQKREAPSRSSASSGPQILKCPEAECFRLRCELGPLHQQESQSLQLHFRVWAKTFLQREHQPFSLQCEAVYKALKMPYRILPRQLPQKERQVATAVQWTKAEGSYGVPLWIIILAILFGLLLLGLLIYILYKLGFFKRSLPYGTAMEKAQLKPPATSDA
# Sequence (P05556 21-798, chain 2 of 2, further chain): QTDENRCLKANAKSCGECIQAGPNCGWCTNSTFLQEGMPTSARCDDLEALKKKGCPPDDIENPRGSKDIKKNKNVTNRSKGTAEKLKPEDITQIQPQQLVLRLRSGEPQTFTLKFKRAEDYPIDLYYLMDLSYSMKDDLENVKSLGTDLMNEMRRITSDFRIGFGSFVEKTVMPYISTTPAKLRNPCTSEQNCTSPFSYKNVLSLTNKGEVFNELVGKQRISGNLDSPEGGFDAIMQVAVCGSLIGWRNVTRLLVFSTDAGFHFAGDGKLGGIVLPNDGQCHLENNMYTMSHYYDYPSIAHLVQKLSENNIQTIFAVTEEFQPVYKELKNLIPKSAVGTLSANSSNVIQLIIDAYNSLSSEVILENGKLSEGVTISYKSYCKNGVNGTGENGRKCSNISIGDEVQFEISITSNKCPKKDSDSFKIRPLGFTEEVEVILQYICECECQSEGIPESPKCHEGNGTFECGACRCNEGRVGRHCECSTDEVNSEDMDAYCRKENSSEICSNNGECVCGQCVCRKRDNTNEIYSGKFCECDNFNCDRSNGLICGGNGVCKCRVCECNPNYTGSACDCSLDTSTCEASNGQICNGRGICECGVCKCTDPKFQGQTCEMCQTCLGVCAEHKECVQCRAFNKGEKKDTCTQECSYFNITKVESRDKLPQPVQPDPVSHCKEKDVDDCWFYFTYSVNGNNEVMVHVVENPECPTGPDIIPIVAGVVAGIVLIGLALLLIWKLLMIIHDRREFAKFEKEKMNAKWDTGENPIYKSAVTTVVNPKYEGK
binder,measurement,value
RGDS (modifications not checked) [RGDS peptide (Gibco)],ID30,170 µM

# From US20040019188A1, “Targeting through integrins” (priority 2000, published 2004)
